Values joined by “and” are separate entries in the source; they are usually repeats but may differ in a detail not shown here. Equal entries are not always repeated. Bounds are passed on as bounds.

What all share (conditions): both partners purified
Assay [1] concerns the target T1, Fg domain of human tenascin-C (human, UniProt P24821 1975-2201).
T1 construct: C-terminal fibrinogen-like (Fg) domain of human tenascin-C, amino acid residues 1975-2201; also called HTNC(Fg); TNC(Fg); source: E. coli Origami 2(DE3), purified (Ni Sepharose, HRV 3C cleavage, HiTrap Heparin, Superdex 200)
T1 sequence (looked up): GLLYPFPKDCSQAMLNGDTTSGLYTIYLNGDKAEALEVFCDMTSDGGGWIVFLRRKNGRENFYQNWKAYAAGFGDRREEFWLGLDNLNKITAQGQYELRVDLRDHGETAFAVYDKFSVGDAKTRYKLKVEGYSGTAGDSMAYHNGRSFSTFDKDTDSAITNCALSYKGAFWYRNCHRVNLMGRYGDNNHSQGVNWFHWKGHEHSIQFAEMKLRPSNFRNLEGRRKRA
As to the kind of experiment: BLI; biotinylated RPTPζ(FN) on streptavidin tips, Fg domain as analyte; room temperature, 150 mM NaCl, 10 mM Na-Hepes pH 7.5, 1 mg/ml BSA, 0.02% Tween-20, 5 mM CaCl2; dose-response analysis of the signal at equilibrium.

Assay [2] deals with T2, Fg domain of human tenascin-R (human, UniProt Q92752 1129-1358).
T2 construct: C-terminal fibrinogen-like (Fg) domain of human tenascin-R, amino acid residues 1129-1358; also called HTNR(Fg); TNR(Fg); source: E. coli Origami 2(DE3), purified (Ni Sepharose, HRV 3C cleavage, HiTrap Heparin, Superdex 200)
T2 sequence (looked up): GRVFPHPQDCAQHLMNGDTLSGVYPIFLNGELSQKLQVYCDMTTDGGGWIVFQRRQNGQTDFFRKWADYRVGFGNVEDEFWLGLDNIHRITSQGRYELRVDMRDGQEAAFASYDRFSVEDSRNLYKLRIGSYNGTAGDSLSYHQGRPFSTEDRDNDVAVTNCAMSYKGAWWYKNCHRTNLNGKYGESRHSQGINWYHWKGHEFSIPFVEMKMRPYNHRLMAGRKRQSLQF
The assay is described as above.

The target of assay [3] is T1, Fg domain of human tenascin-C. As to the kind of experiment: BLI; biotinylated RPTPζ(FN) on streptavidin tips, Fg domain as analyte; room temperature, 150 mM NaCl, 10 mM Na-Hepes pH 7.5, 1 mg/ml BSA, 0.02% Tween-20, 5 mM CaCl2; kinetic analysis, sensorgrams fitted to a 1:1 binding model.
Assay [4] concerns the target T2, Fg domain of human tenascin-R. The description is as above.
The target of assay [5] is T3, Fg domain of human tenascin-R (amino acid residues 1129-1358) (human, UniProt Q92752 1129-1358).
T3 construct: tenascin-R (TNR), human, fibrinogen-like (Fg) domain, residues 1129-1358; also called TNR(Fg); source: E. coli Origami 2(DE3), purified (Ni Sepharose, 3C cleavage, HiTrap Heparin, Superdex 200)
T3 sequence (looked up): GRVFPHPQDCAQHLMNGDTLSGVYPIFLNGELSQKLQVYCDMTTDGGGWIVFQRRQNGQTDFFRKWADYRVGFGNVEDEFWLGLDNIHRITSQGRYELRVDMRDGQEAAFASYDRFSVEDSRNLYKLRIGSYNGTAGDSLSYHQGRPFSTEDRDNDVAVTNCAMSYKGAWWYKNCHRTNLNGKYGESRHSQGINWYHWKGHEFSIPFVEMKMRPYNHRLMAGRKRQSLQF
Nature of the assay: BLI; biotinylated FN domain of RPTPζ (250 nM) immobilised on streptavidin tips; Fg domain in solution; room temperature; 150 mM NaCl, 10 mM Na-Hepes pH 7.5, 1 mg/ml BSA, 0.02% Tween-20, 5 mM EDTA; KD from the signal at equilibrium. In general terms: Biolayer interferometry detects binding as a change in optical thickness at a sensor tip.

Assay [6] deals with T4, Fg domain of human tenascin-C (amino acid residues 1975-2201) (human, UniProt P24821 1975-2201).
T4 construct: tenascin-C (TNC), human, fibrinogen-like (Fg) domain, residues 1975-2201; also called TNC(Fg); WT TNC; source: E. coli Origami 2(DE3), purified (Ni Sepharose, 3C cleavage, HiTrap Heparin, Superdex 200)
T4 sequence (looked up): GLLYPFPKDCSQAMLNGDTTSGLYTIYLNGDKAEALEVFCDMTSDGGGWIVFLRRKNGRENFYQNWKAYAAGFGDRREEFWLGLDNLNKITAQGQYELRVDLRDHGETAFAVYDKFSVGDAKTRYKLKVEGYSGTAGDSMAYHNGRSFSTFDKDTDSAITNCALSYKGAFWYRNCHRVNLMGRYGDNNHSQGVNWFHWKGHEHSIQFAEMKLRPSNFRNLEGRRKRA
The description is as above.

Assay [7] addresses T3, Fg domain of human tenascin-R (amino …). As to the kind of experiment: BLI; biotinylated FN domain of RPTPζ (250 nM) immobilised on streptavidin tips; Fg domain in solution; room temperature; 150 mM NaCl, 10 mM Na-Hepes pH 7.5, 1 mg/ml BSA, 0.02% Tween-20, 5 mM CaCl2; KD from the signal at equilibrium.
Assay [8] addresses T4, Fg domain of human tenascin-C (amino …). Described as above.
The target in assay [9] is T5, CA-FN domains of human RPTPζ (amino acid residues 34-410) fused to human IgG1 Fc, purified (human, UniProt P23471 34-410).
T5 construct: RPTPζ, human, carbonic anhydrase-like and FN domains (CA-FN), residues 34-410; also called RPTPζ(CA-FN); IgG Fc fusion of RPTPζ(CA-FN)
As to the kind of experiment: AlphaScreen or HTRF; competition format: biotinylated human TNC(Fg) (5 nM) on streptavidin donor beads, purified RPTPζ(CA-FN)-Fc (0.5 nM) on protein A acceptor beads, untagged Fg domains at varying concentrations; room temperature; one-site competition fit.

Assay [10] concerns the target T6, CA-FN domains of human RPTPζ fused to human IgG1 Fc (human, UniProt P23471 34-410).
T6 construct: carbonic anhydrase-like and fibronectin type III (CA-FN) domains of human RPTPζ, amino acid residues 34-410; also called RPTPζ(CA-FN)-Fc; RPTPζ(CA-FN)
As to the kind of experiment: AlphaScreen or HTRF; competition: RPTPζ(CA-FN)-Fc (0.5 nM) on protein A acceptor beads, biotinylated TNC(Fg) (5 nM) on streptavidin donor beads, untagged Fg domain as inhibitor in a dilution series; room temperature; one-site competition fit.

B1: biotinylated FN domain of human RPTPζ (domain or fragment)
chain: not shown
modifications: biotin (EZ-Link NHS-PEG4-Biotin, 1:1 molar ratio)
For orientation: Kd means the free concentration of one partner at which half of the binding sites on the other are occupied at equilibrium, for simple one-to-one binding. Higher therefore signals a looser complex. For the molecule B1, the dissociation constant (Kd) in assay [1] was 242 nM and 191 nM and 127 nM and 187 nM; in [2] it was 114 nM and 117 nM and 113 nM and 104 nM; in [3], 150 nM and 170 nM and 189 nM and 173 nM; in [4] it was 79 nM and 80 nM and 78 nM.

B2: biotinylated FN domain of human RPTPζ (domain or fragment)
chain: not shown
modifications: biotin (EZ-Link NHS-PEG4-Biotin, 1:1 molar ratio)
Usually koff stands for the rate constant with which the complex falls apart. As to B2, the equilibrium dissociation constant (Kd) is 712 nM in assay [5], 9900 nM in [6], 112 nM in [7] and 187 nM in [8]. For the same molecule, the off-rate constant (koff) in assay [7] and in assay [8] was over 0.01 s⁻¹ throughout.

B3: biotinylated Fg domain of human tenascin-C with a cysteine residue added at the N-terminus (domain or fragment)
chain: CGLLYPFPKDCSQAMLNGDTTSGLYTIYLNGDKAEALEVFCDMTSDGGGWIVFLRRKNGRENFYQNWKAYAAGFGDRREEFWLGLDNLNKITAQGQYELRVDLRDHGETAFAVYDKFSVGDAKTRYKLKVEGYSGTAGDSMAYHNGRSFSTFDKDTDSAITNCALSYKGAFWYRNCHRVNLMGRYGDNNHSQGVNWFHWKGHEHSIQFAEMKLRPSNFRNLEGRRKRA
modifications: biotin (EZ-Link Maleimide-PEG2-Biotin) on the added N-terminal cysteine
notes: cysteine residue added at the N-terminus of the Fg domain by site-directed mutagenesis; tenascin-C (TNC), human, fibrinogen-like (Fg) domain, residues 1975-2201; also called biotinylated human TNC(Fg); biotinylated TNC(Fg); source: E. coli Origami 2(DE3), purified, biotinylated, then gel filtration
For B3, the binding result in assay [9] was “binds”.

B4: biotinylated Fg domain of human tenascin-C with an added N-terminal cysteine (domain or fragment)
chain: CGLLYPFPKDCSQAMLNGDTTSGLYTIYLNGDKAEALEVFCDMTSDGGGWIVFLRRKNGRENFYQNWKAYAAGFGDRREEFWLGLDNLNKITAQGQYELRVDLRDHGETAFAVYDKFSVGDAKTRYKLKVEGYSGTAGDSMAYHNGRSFSTFDKDTDSAITNCALSYKGAFWYRNCHRVNLMGRYGDNNHSQGVNWFHWKGHEHSIQFAEMKLRPSNFRNLEGRRKRA
modifications: biotin (EZ-Link Maleimide-PEG2-Biotin) on the cysteine added at the N-terminus
notes: a cysteine residue added at the N-terminus of the Fg domain by site-directed mutagenesis; C-terminal fibrinogen-like (Fg) domain of human tenascin-C, amino acid residues 1975-2201; also called biotin-HTNC(Fg); biotinylated human TNC(Fg); source: E. coli Origami 2(DE3), purified, biotinylated, then gel filtration
With B4, the binding result in assay [10] is “binds”.

Source of the values: PMC10371798, “Protein–protein interactions between tenascin-R and RPTPζ/phosphacan are critical to maintain the architecture of perineuronal nets” (The Journal of Biological Chemistry, 2023).
